Results reported in patent publication US8242083B2, “Kinase substrates” (PerkinElmer Health Sciences, Inc., priority 2008, dated 2012).

Legend:
Assay type in all cases: biochemical
DDR2 = target: T1, DDR2 (Homo sapiens, UniProt Q16832); assay: TR-FRET kinase assay, DDR2; conditions: Kinase Concentration 0.5 nM; 50 nM ULight-labeled substrate, 200 micromolar ATP, 2 hours
T1 sequence (Q16832 22-855): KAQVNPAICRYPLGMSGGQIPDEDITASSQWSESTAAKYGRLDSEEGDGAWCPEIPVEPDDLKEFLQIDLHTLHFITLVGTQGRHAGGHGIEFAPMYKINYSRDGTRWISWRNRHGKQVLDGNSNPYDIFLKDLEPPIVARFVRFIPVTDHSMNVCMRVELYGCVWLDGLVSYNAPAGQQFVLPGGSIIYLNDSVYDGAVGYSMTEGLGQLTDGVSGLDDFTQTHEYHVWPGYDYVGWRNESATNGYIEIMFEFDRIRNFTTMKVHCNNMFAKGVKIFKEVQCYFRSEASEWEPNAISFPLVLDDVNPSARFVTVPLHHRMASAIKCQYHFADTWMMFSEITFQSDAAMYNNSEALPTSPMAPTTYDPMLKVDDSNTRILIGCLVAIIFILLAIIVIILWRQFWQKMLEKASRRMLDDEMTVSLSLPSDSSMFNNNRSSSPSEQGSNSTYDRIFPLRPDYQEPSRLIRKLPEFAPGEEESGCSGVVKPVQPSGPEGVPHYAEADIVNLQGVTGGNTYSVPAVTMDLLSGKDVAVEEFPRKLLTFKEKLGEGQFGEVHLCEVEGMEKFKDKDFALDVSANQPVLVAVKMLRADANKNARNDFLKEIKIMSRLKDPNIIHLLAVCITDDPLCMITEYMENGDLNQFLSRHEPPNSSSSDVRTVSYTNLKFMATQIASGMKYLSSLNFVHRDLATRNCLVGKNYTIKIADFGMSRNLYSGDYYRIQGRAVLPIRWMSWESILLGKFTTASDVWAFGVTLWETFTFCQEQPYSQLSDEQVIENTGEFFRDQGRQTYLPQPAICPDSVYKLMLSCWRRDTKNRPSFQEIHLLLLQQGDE
Protocol: (§1) TR-FRET kinase assays are performed under standardized conditions: various individual kinases are incubated with 50 nM of kinase substrate BRB1 labeled with the TR-FRET acceptor dye ULight (PerkinElmer) and 200 micromolar ATP in 10 μL of kinase assay buffer (50 mM HEPES pH7.5, 10 mM MgCl2, 3 mM MnCl2, 1 mM EGTA, 2 mM DTT and 0.01% Tween-20) for 2 hours at room temperature. Reactions are stopped with EDTA, and anti-phospho-tyrosine antibodies (clone PT66) labeled with the TR-FRET europium chelate donor dye are added to a final concentration of 2 nM in a final volume of 20 μL. The TR-FRET signal emitted at 665 nm is read one hour after the addition of antibodies using a TR-FRET plate reader such as the Envision® Multilabel Plate reader (PerkinElmer). The emitted signal at 665 nm is proportional to the extent of peptide phosphorylation, Control reactions indicative of background are performed excluding ATP from the reaction.
(§2) Assay conditions are identical to those used described for FIG. 1.

FGFR2 = FGFR2 (Homo sapiens, UniProt P21802); assay: TR-FRET kinase assay, FGFR2; conditions: Kinase Concentration 0.25 nM; 50 nM ULight-labeled substrate, 200 micromolar ATP, 2 hours
Protocol: as §1, §2

ROR1 = ROR1 (Homo sapiens, UniProt Q01973); assay: TR-FRET kinase assay, ROR1; conditions: Kinase Concentration 20 nM; 50 nM ULight-labeled substrate, 200 micromolar ATP, 2 hours
Protocol: as §1, §2

EphA7 = EphA7 (Homo sapiens, UniProt Q15375); assay: TR-FRET kinase assay, EphA7; conditions: Kinase Concentration 0.5 nM; 50 nM ULight-labeled substrate, 200 micromolar ATP, 2 hours
Sequence of EphA7 (Q15375 28-998, species assumed): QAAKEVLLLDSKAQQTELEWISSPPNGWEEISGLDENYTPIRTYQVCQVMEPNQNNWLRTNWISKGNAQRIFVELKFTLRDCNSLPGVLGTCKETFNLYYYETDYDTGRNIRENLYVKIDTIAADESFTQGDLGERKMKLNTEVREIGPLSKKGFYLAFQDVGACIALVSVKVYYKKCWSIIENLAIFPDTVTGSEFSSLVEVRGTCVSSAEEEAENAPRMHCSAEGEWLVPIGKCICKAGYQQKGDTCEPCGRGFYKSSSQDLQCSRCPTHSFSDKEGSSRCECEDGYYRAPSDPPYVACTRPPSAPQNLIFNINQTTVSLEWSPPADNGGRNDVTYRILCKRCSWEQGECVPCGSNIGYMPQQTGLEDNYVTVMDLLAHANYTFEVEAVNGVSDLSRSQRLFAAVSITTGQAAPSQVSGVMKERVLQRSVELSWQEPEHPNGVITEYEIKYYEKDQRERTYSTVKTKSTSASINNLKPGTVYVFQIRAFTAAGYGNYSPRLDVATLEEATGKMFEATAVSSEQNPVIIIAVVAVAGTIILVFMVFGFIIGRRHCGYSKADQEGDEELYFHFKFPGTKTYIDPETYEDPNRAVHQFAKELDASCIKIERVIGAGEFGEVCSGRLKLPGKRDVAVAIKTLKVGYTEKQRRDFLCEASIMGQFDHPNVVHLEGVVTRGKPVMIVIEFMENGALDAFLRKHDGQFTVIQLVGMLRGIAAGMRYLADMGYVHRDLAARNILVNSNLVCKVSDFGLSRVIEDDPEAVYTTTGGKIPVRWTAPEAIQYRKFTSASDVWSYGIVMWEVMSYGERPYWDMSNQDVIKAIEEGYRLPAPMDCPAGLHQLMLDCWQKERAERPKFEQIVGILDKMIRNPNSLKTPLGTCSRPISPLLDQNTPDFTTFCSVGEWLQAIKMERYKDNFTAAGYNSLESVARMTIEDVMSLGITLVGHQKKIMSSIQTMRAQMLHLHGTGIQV
Protocol: as §1, §2

HCK = HCK (Homo sapiens, UniProt P08631); assay: TR-FRET kinase assay, HCK; conditions: Kinase Concentration 0.25 nM; 50 nM ULight-labeled substrate, 200 micromolar ATP, 2 hours
Sequence of HCK (P08631 whole entry, species assumed): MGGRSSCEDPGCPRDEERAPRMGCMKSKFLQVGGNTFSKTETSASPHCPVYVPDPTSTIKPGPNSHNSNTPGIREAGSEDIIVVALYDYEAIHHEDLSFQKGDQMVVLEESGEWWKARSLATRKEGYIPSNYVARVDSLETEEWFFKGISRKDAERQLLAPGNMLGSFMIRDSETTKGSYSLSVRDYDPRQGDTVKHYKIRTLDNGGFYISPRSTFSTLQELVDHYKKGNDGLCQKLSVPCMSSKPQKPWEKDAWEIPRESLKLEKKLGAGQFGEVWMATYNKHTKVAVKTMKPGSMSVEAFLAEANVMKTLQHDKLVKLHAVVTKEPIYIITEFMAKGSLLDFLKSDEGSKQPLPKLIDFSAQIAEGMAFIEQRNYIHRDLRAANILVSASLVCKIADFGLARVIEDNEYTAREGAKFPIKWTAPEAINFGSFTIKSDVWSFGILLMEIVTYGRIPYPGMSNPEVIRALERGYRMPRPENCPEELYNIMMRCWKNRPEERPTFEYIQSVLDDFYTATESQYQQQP
Protocol: as §1, §2

HER4 (ERBB4) = HER4 (ERBB4) (Homo sapiens, UniProt Q15303); assay: TR-FRET kinase assay, HER4 (ERBB4); conditions: Kinase Concentration 0.1 nM; 50 nM ULight-labeled substrate, 200 micromolar ATP, 2 hours
Sequence of HER4 (ERBB4) (Q15303 26-1308, species assumed): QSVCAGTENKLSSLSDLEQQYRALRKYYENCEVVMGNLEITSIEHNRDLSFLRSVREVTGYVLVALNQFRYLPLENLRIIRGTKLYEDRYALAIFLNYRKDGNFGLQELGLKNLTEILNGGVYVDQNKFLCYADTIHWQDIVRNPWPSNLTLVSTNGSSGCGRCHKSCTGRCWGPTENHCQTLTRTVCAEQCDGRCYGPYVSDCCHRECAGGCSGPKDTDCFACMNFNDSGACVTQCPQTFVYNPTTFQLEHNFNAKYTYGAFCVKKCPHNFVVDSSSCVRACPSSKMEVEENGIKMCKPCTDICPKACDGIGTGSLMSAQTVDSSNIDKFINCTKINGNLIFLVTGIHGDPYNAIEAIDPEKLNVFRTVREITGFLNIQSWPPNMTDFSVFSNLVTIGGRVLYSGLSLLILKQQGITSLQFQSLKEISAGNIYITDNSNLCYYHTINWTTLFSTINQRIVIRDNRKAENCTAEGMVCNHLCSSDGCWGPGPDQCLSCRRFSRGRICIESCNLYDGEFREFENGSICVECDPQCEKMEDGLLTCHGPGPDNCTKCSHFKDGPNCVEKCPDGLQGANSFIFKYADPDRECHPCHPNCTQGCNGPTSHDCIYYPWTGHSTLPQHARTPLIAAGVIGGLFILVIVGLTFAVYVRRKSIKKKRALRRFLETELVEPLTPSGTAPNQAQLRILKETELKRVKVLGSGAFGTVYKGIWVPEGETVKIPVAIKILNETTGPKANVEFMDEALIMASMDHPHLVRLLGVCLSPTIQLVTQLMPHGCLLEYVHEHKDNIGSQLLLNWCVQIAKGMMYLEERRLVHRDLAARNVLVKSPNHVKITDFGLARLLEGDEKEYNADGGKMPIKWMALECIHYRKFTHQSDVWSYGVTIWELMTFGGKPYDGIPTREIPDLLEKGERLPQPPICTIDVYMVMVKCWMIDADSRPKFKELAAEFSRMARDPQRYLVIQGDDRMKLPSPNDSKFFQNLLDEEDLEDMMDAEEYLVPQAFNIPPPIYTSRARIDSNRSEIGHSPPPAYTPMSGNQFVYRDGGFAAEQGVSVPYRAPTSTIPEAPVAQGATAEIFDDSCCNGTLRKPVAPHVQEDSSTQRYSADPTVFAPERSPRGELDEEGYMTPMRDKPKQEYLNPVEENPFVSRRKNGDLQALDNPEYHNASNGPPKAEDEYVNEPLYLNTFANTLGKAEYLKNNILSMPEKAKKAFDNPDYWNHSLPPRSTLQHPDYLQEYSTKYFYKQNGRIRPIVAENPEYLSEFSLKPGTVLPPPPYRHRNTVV
Protocol: as §1, §2

ROS = ROS (Homo sapiens, UniProt P08922); assay: TR-FRET kinase assay, ROS; conditions: Kinase Concentration 0.25 nM; 50 nM ULight-labeled substrate, 200 micromolar ATP, 2 hours
Protocol: as §1, §2

CTK = target: T2, CTK (Homo sapiens, UniProt P42679); assay: TR-FRET kinase assay, CTK; conditions: Kinase Concentration 20 nM; 50 nM ULight-labeled substrate, 200 micromolar ATP, 2 hours
T2 sequence (P42679 1-507): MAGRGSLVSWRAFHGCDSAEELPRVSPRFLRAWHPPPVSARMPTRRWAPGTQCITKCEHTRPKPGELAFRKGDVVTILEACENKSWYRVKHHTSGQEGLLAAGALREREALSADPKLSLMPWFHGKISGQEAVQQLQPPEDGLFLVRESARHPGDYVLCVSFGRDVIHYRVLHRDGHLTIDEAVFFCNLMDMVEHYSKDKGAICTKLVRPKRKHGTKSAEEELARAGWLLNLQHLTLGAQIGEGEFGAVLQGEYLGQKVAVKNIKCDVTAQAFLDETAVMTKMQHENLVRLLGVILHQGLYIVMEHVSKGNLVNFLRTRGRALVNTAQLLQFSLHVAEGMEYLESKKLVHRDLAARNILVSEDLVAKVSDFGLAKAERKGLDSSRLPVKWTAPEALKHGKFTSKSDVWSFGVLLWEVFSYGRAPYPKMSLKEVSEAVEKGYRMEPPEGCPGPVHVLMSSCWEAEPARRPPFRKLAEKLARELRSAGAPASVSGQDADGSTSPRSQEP
Protocol: as §1, §2

EphA5 = EphA5 (Homo sapiens, UniProt P54756); assay: TR-FRET kinase assay, EphA5; conditions: Kinase Concentration 1 nM; 50 nM ULight-labeled substrate, 200 micromolar ATP, 2 hours
Sequence of EphA5 (P54756 25-1037, species assumed): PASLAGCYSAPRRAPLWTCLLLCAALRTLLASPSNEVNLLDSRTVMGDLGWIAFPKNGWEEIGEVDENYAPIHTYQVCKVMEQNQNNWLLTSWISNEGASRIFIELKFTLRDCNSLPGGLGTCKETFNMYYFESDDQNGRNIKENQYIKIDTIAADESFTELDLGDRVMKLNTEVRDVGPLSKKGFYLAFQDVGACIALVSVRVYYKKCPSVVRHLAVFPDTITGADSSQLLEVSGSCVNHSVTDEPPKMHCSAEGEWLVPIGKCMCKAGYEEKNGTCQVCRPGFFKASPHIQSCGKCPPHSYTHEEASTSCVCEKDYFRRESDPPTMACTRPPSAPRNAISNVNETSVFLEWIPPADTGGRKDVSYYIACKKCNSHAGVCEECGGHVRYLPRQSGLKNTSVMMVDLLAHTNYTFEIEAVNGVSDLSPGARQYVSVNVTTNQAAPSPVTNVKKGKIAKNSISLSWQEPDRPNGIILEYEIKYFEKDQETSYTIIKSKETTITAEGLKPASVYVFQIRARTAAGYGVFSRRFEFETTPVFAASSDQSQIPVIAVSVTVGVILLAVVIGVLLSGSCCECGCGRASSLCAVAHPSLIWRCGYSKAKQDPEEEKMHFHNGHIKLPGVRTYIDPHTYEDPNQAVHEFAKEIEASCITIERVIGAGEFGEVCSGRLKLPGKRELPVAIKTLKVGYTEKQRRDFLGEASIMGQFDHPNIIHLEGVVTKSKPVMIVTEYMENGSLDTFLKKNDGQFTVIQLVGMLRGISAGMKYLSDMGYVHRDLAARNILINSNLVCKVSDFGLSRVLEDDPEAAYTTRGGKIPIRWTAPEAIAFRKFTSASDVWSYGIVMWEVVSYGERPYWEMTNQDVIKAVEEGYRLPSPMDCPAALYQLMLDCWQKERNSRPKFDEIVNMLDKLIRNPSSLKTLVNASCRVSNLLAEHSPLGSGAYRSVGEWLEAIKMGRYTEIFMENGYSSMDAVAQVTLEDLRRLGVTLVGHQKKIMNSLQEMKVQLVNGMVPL
Protocol: as §1, §2

FGFR1 = FGFR1 (Homo sapiens, UniProt P11362); assay: TR-FRET kinase assay, FGFR1; conditions: Kinase Concentration 0.5 nM; 50 nM ULight-labeled substrate, 200 micromolar ATP, 2 hours
Sequence of FGFR1 (P11362 22-822, species assumed): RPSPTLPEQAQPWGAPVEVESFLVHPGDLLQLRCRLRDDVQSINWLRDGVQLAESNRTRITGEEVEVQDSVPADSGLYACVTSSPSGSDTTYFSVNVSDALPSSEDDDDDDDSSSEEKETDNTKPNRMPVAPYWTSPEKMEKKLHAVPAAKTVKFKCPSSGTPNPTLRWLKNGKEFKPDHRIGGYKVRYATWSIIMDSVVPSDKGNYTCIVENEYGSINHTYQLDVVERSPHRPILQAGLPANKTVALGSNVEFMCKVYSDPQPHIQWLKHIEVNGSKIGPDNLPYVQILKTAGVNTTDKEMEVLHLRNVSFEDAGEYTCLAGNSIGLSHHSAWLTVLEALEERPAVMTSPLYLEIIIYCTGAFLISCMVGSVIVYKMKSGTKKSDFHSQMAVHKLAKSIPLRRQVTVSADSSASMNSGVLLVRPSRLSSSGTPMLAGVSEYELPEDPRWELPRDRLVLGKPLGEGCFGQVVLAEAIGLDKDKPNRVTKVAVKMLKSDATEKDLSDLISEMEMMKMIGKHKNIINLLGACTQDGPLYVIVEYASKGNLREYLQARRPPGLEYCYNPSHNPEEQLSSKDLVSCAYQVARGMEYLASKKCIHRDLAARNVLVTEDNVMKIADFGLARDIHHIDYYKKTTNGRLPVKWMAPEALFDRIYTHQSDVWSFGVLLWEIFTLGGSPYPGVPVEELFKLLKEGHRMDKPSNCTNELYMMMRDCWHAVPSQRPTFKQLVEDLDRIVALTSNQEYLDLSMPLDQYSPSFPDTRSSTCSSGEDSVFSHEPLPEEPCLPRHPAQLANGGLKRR
Protocol: as §1, §2

BLK = BLK (Homo sapiens, UniProt P51451); assay: TR-FRET kinase assay, BLK; conditions: Kinase Concentration 0.5 nM; 50 nM ULight-labeled substrate, 200 micromolar ATP, 2 hours
Sequence of BLK (P51451 whole entry, species assumed): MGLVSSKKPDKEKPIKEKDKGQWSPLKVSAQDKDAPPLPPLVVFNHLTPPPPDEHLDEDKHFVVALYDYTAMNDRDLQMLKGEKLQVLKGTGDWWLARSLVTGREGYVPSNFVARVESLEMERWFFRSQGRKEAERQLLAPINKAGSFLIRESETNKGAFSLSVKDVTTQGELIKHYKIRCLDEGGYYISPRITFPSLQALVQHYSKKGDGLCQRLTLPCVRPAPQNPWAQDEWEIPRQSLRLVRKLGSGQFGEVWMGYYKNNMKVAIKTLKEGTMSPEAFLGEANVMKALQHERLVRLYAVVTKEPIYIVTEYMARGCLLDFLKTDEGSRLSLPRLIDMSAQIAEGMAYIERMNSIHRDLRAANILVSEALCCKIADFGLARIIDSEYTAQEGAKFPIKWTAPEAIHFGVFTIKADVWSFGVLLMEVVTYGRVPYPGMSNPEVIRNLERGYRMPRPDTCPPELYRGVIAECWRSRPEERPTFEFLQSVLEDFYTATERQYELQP
Protocol: as §1, §2

Sequence: C AYE AYE AYE K EYA EYA EYA K AYA EYE R (CAYEAYEAYEKEYAEYAEYAKAYAEYER; tyrosine kinase substrate peptide) [BRB1]
- Signal to Noise ratio with BRB1 Peptide (DDR2): 1.0
- Signal to Noise ratio with BRB1 Peptide (FGFR2): 27.1
- Signal to Noise ratio with BRB1 Peptide (ROR1): 1.1
- Signal to Noise ratio with BRB1 Peptide (EphA7): 17.2
- Signal to Noise ratio with BRB1 Peptide (HCK): 29.7
- Signal to Noise ratio with BRB1 Peptide (HER4 (ERBB4)): 3.1
- Signal to Noise ratio with BRB1 Peptide (ROS): 24.5
- Signal to Noise ratio with BRB1 Peptide (CTK): 2.5
- Signal to Noise ratio with BRB1 Peptide (EphA5): 35.5
- Signal to Noise ratio with BRB1 Peptide (FGFR1): 26.4
- Signal to Noise ratio with BRB1 Peptide (BLK): 31.0
